± gives the standard deviation of the averaged measurements.
How the values were obtained:
[1] = tested on: VchCAST RNA-guided transposition machinery (E. coli BL21(DE3) host, lacZ target); assay: relative integration efficiency (T-LR orientation) vs wild-type transposon end (log2 (normalized fold change)); transposon end mutated: right end (5 bp flank + 75 bp right end); higher = more efficient transposition
Summary of the method: (§1)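 A T7-driven effector plasmid encoding a CRISPR array, tniQ-cas8-cas7-cas6 and tnsA-tnsB-tnsC was co-transformed into E. coli BL21(DE3) together with a pUC57 mini-transposon donor holding barcoded pools of 1549 left-end or 1849 right-end variants. Transformants were plated with 0.1 mM IPTG at 37°C for 18 h. Illumina sequencing of PCR-amplified input plasmids and genomic integration junctions gave barcode abundances, and relative integration efficiency is their output/input fold change, normalised to reference barcodes and log-transformed.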

[2] = tested on: VchCAST RNA-guided transposition machinery (E. coli BL21(DE3) host, lacZ target); assay: relative integration efficiency (T-RL orientation) vs wild-type transposon end (log2 (normalized fold change)); transposon end mutated: right end (5 bp flank + 75 bp right end); higher = more efficient transposition
Summary of the method: as §1

Sequence	relative integration efficiency (log2) [1]	relative integration efficiency (log2) [2]
ACATTTGTTGATACAACCATAAAATGATAATTACACCCATCCCGGTCGCCGGCGACACAAACGCCCGGTCGCGGTAAGAGGATCATAGTCAGACCAACATTGCTACGACCCGTATTCGCACCGACAC	0.414 ± 0.23	-2.64 ± 0.12
ACATTTGTTGATACAACCATAAAATGATAATTACACCCATCCCGTGATAATTATCACACCCATAAATTGATATTGCCTCTGATCATAGTCAGACCAACATTGCTACGACCCGTATTCGCACCGACAC	-1.98 ± 0.74	-1.77 ± 0.12
ACATTTGTTGATACAACCATAAAATGATAATTACACCCATTAATTGATAATAATGACACCGAATTTAACTATAACGCTCTGATCATAGTCAGACCAACATTGCTACGACCCGTATTCGCACCGACAC	2.24 ± 0.16	-1.51 ± 0.32
ACATTTGTTGATACAACCATAAAATGATAATTACACCCATTAATTGATAATGATGACACCGAATTTAACTATAACGCTCTGATCATAGTCAGACCAACATTGCTACGACCCGTATTCGCACCGACAC	2.15 ± 0.056	-1.4 ± 0.35
ACATTTGTTGATACAACCATAAAATGATAATTACACCCATTAATTGATAATTGTGACACCGAATTTAACTATAACGCTCTGATCATAGTCAGACCAACATTGCTACGACCCGTATTCGCACCGACAC	2.21 ± 0.16	-1.29 ± 0.37
ACATTTGTTGATACAACCATAAAATGATAATTACACCCATTTATTGATAATTATCACACCCATAAATTGATATTGCCTCTGATCATAGTCAGACCAACATTGCTACGACCCGTATTCGCACCGACAC	-0.628 ± 0.89	-0.33 ± 0.029
ACATTTGTTGATACAACCATAAAATGATAATTACACCCATTTTATGATAATTATCACACCCATAAATTGATATTGCCTCTGATCATAGTCAGACCAACATTGCTACGACCCGTATTCGCACCGACAC	2.63 ± 0.56	2.79 ± 0.74
ACATTTGTTGATACAACCATAAAATGATAATTACACCCCGAAATTGATAATTATCACACCCATAAATTGATATTGCCTCTGATCATAGTCAGACCAACATTGCTACGACCCGTATTCGCACCGACAC	-2.51 ± 0.16	-3.14 ± 0.19
ACATTTGTTGATACAACCATAAAATGATAATTACACCCCGCCATTGATAATTATCACACCCATAAATTGATATTGCCTCTGATCATAGTCAGACCAACATTGCTACGACCCGTATTCGCACCGACAC	-2.56 ± 0.28	-3.5 ± 0.22
ACATTTGTTGATACAACCATAAAATGATAATTACACCCCGCCCGGTCGCCGGCGACACAAACGCCCGGTCGCGGTAAGAGGATCATAGTCAGACCAACATTGCTACGACCCGTATTCGCACCGACAC	0.746 ± 0.13	-2.33 ± 0.061
ACATTTGTTGATACAACCATAAAATGATAATTACACCCCTACATTGATAATTATCACACCCAATTTAACTATAACGCTCTGATCATAGTCAGACCAACATTGCTACGACCCGTATTCGCACCGACAC	0.306 ± 0.013	-2.87 ± 0.33
ACATTTGTTGATACAACCATAAAATGATAATTACACCCTAAAATTGATAATTATCACACCCATAAATTGATATTGCCTCTGATCATAGTCAGACCAACATTGCTACGACCCGTATTCGCACCGACAC	-1.14 ± 0.11	-0.736 ± 0.05
ACATTTGTTGATACAACCATAAAATGATAATTACACCCTATTATTGATAATTATCACACCCATAAATTGATATTGCCTCTGATCATAGTCAGACCAACATTGCTACGACCCGTATTCGCACCGACAC	-0.974 ± 0.13	-0.713 ± 0.11
ACATTTGTTGATACAACCATAAAATGATAATTACACCGTATAATTGATAATTATCACACCCATAAATTGATATTGCCTCTGATCATAGTCAGACCAACATTGCTACGACCCGTATTCGCACCGACAC	-1.63 ± 0.12	-1.74 ± 0.11
ACATTTGTTGATACAACCATAAAATGATAATTACACCGTTAAATTGATAATTATCACACCCATAAATTGATATTGCCTCTGATCATAGTCAGACCAACATTGCTACGACCCGTATTCGCACCGACAC	-1.18 ± 0.3	-0.609 ± 0.084
ACATTTGTTGATACAACCATAAAATGATAATTACACGGATAAATTGATAATTATCACACCCATAAATTGATATTGCCTCTGATCATAGTCAGACCAACATTGCTACGACCCGTATTCGCACCGACAC	-0.469 ± 0.21	-0.265 ± 0.13
ACATTTGTTGATACAACCATAAAATGATAATTACACGGTAAAATTGATAATTATCACACCCATAAATTGATATTGCCTCTGATCATAGTCAGACCAACATTGCTACGACCCGTATTCGCACCGACAC	-2.29 ± 0.055	-1.85 ± 0.1
ACATTTGTTGATACAACCATAAAATGATAATTACAGGCATAAATTGATAATTATCACACCCATAAATTGATATTGCCTCTGATCATAGTCAGACCAACATTGCTACGACCCGTATTCGCACCGACAC	-0.52 ± 0.19	-0.00584 ± 0.032
ACATTTGTTGATACAACCATAAAATGATAATTACAGGGTTAAATTGATAATTATCACACCCATAAATTGATATTGCCTCTGATCATAGTCAGACCAACATTGCTACGACCCGTATTCGCACCGACAC	-2.54 ± 0.42	-1.5 ± 0.12
ACATTTGTTGATACAACCATAAAATGATAATTACCAAAATAAATTGATAATTATCACACCCATAAATTGATATTGCCTCTGATCATAGTCAGACCAACATTGCTACGACCCGTATTCGCACCGACAC	-1.47 ± 0.039	-0.773 ± 0.1
ACATTTGTTGATACAACCATAAAATGATAATTACCAAACGCCCGGTCGCCGGCGACACAAACGCCCGGTCGCGGTAAGAGGATCATAGTCAGACCAACATTGCTACGACCCGTATTCGCACCGACAC	0.864 ± 0.055	-1.94 ± 0.27
ACATTTGTTGATACAACCATAAAATGATAATTACCACCATAAATTGATAATTATCACACCCATAAATTGATATTGCCTCTGATCATAGTCAGACCAACATTGCTACGACCCGTATTCGCACCGACAC	-0.372 ± 0.27	0.0622 ± 0.17
ACATTTGTTGATACAACCATAAAATGATAATTACCACCCATAAATTGATAATTATCACACCCATTTAACTATAACGCTCTGATCATAGTCAGACCAACATTGCTACGACCCGTATTCGCACCGACAC	1.69 ± 0.051	-0.999 ± 0.21
ACATTTGTTGATACAACCATAAAATGATAATTACCACCCATACATTGATAATTATCACACCCATTTAACTATAACGCTCTGATCATAGTCAGACCAACATTGCTACGACCCGTATTCGCACCGACAC	0.106 ± 0.04	-2.43 ± 0.1
ACATTTGTTGATACAACCATAAAATGATAATTACCACCCCTAAATTGATAATTATCACACCCATTTAACTATAACGCTCTGATCATAGTCAGACCAACATTGCTACGACCCGTATTCGCACCGACAC	-0.321 ± 0.18	-3.13 ± 0.18
ACATTTGTTGATACAACCATAAAATGATAATTACCACCCCTACATTGATAATTATCACACCCATTTAACTATAACGCTCTGATCATAGTCAGACCAACATTGCTACGACCCGTATTCGCACCGACAC	-0.0894 ± 0.12	-3.12 ± 0.17
ACATTTGTTGATACAACCATAAAATGATAATTACCCCCATAAATTGATAATAATGACACCGAATTTAACTATAACGCTCTGATCATAGTCAGACCAACATTGCTACGACCCGTATTCGCACCGACAC	1.94 ± 0.1	-1.7 ± 0.48

— the supplement of paper PMC10201428
